For 1 molecule, binding result, Kd and kon results are on record in US20170129954A1 (PROTHENA BIOSCIENCES, published 2017).

For assay [1], the target named is T1, human MCAM Y318A single mutant displayed on mammalian cells (human, UniProt P43121 24-646).
T1 construct: also called Y318A mutant
T1 chain: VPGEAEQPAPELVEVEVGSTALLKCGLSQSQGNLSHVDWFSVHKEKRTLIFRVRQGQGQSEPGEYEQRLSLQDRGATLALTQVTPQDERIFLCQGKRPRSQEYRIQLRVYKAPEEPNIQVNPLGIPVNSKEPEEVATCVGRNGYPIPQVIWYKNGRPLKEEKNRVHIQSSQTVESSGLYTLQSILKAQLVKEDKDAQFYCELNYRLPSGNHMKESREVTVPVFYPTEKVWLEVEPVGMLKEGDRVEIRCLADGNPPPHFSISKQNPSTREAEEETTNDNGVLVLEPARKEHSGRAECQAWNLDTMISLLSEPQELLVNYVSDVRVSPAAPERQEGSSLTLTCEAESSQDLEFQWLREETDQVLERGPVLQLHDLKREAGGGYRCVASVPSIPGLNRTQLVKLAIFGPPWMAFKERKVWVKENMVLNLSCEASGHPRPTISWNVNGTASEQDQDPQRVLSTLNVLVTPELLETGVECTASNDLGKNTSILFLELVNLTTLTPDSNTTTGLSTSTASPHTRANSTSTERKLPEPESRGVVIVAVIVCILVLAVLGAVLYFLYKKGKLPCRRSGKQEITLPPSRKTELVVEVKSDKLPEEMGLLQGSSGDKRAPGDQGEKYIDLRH
Put plainly: FACS on mammalian cells displaying the mutant. The text has this: Twenty point mutants based on the structure information and shotgun mutagenesis information were designed and generated.

The target of assay [2] is T2, MCAM Y318A mutant, purified protein from a stable cell line (human, UniProt P43121 24-559, limits assumed).
T2 chain: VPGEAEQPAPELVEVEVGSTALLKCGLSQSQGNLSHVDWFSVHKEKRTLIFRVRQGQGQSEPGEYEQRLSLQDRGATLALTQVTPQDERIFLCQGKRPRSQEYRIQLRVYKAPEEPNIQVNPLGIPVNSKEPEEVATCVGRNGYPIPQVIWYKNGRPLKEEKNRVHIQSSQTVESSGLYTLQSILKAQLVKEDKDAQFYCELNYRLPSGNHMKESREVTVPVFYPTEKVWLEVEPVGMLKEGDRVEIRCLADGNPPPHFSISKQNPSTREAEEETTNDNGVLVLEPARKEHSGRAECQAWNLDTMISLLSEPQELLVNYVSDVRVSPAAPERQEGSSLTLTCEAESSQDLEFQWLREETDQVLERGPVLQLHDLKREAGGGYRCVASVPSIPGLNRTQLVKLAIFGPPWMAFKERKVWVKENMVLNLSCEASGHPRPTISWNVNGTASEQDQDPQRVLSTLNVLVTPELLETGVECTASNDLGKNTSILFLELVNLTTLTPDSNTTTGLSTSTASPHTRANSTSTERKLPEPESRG
Put plainly: ForteBio BLI with purified protein. The method, then:
To further confirm the data, stable cell lines expressing I141A, P145V, D216A and Y318A respectively were generated. Fortebio assays were performed with the purified proteins as described above. The control ABX-MA1 antibody bound to wild type MCAM and the MCAM mutants.
A general note: Biolayer interferometry detects binding as a change in optical thickness at a sensor tip.

Assay [3] concerns the target T3, human MCAM (antigen of the BLI kinetics in Example 7) (human, UniProt P43121 24-559, limits assumed).
T3 chain: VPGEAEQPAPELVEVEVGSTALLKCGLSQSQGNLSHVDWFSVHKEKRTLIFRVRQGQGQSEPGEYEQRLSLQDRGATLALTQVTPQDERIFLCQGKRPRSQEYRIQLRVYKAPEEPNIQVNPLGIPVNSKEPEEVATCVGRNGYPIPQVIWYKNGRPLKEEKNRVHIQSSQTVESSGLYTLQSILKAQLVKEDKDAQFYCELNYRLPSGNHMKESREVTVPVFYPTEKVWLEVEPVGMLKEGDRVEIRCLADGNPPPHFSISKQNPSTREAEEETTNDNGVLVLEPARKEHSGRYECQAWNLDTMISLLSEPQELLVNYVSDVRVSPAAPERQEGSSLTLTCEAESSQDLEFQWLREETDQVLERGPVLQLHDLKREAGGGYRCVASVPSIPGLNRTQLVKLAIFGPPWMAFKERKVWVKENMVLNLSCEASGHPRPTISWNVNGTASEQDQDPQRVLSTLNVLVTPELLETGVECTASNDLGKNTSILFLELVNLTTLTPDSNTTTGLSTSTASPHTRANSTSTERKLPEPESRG
Kind of assay: BLI, ForteBio Octet QK, apparent KD. From the text:
(§1) Apparent ka, apparent kd and apparent KD are binding kinetic parameters obtained using ForteBio assay formats.

The target of assay [4] is T3, human MCAM (antigen of the BLI kinetics …). Put plainly: BLI, ForteBio Octet QK, apparent ka.
Text: as §1

B1: mouse anti-human MCAM monoclonal antibody clone 1749.1.3 (antibody, V domains shown)
VH: DVKLVESGGDLVKPGGSLKLSCAASGFTFSSYIMSWVRQTPEKRLEWVATISSGGSSTYYPDSVKGRFTISRDNAKNTLYLQMSSLKSEDTAMYYCTRDDDYDVKVFAYWGQGTLVTVSA
VL: DIVMSQSPSSLAVSAGEKVTMNCKSSRSLLNSRIRKNYLAWYQQKPGQSPKLLIYWASTRESGVPDRFTGSGSGTDFTLTISSVQAEDLAVYYCKQSYNLLTFGAGTKLELK
notes: Mouse hybridoma monoclonal antibody; also called m1749
For B1, the binding result in assay [1] and in assay [2] was “no binding” throughout. Moreover, the Kd in assay [3] worked out at 0.286 nM. Further, in assay [4], the kon was found to be 1.41e+06 M⁻¹ s⁻¹.

By kon is commonly meant the rate constant with which the complex forms.
